Broadly, the koff is a measure of how fast the partners let go of each other.

B1: T017000354 (VHH)
VHH: EVQLVESGGGVVQPGGSLRLSCVASGAVHKINFYGWYRQAPGKEREKVAHISIGDQTDYADSAKGRFTISRDESKNMVYLQMNSLRPEDTALYFCRAMSRIWPYDYWGQGTLVTVSS
B2: T017000371 (VHH)
VHH: B1 VHH with A27Y
B3: T017000499 (VHH)
VHH: B1 VHH with A27Y, I31L, Y34L
B4: T017000364 (VHH)
VHH: B1 VHH with K30Q, Y34L
B5: T017000382 (VHH)
VHH: B1 VHH with A27S, W102Y, Y106W
B6: T017000505 (VHH)
VHH: B1 VHH with A27D, K30Q, I31L, Y34L, M98F, R100K, W102Y
B7: T017000381 (VHH)
VHH: B1 VHH with Y34L, W102Y
B8: T017000367 (VHH)
VHH: B1 VHH with A27Y, Y34L
B9: T017000372 (VHH)
VHH: B1 VHH with A27Y, W102Y
B10: T017000386 (VHH)
VHH: B1 VHH with A27S, I31L, Y34L, M98F, Y106W
B11: T017000419 (VHH)
VHH: B1 VHH with I31L
B12: T017000434 (VHH)
VHH: B1 VHH with A27S, I31L, W102Y
B13: T017000398 (VHH)
VHH: B1 VHH with G26Y, A27D, K30Q
B14: T017000411 (VHH)
VHH: B1 VHH with G26W, A27D
B15: T017000443 (VHH)
VHH: B1 VHH with G26W, A27D, K30Q, R100K, W102Y
B16: T017000360 (VHH)
VHH: B1 VHH with G26W, A27S, K30Q, I31L, R100K, W102Y, Y106W
B17: T017000461 (VHH)
VHH: B1 VHH with A27D, K30Q
B18: T017000359 (VHH)
VHH: B1 VHH with G26W, A27D, K30Q, M98F, R100K, W102Y
B19: T017000368 (VHH)
VHH: B1 VHH with G26W, A27D, K30Q, W102Y
B20: T017000374 (VHH)
VHH: B1 VHH with G26Y, A27D, K30Q, R100K
B21: T017000379 (VHH)
VHH: B1 VHH with G26W, A27D, K30Q, R100K
B22: T017000408 (VHH)
VHH: B1 VHH with A27S
B23: T017000384 (VHH)
VHH: B1 VHH with K30Q, I31L
B24: T017000391 (VHH)
VHH: B1 VHH with W102Y
B25: T017000498 (VHH)
VHH: B1 VHH with Y106W
B26: T017000356 (VHH)
VHH: B1 VHH with A27S, I31L
B27: T017000406 (VHH)
VHH: B1 VHH with A27Y, K30Q
B28: T017000365 (VHH)
VHH: B1 VHH with I31L, Y34L, Y106W
B29: T017000442 (VHH)
VHH: B1 VHH with A27Y, I31L, W102Y
B30: T017000363 (VHH)
VHH: B1 VHH with A27S, W102Y
B31: T017000450 (VHH)
VHH: B1 VHH with A27Y, K30Q, Y34L
B32: T017000355 (VHH)
VHH: B1 VHH with G26W, A27D, K30Q, I31L
B33: T017000509 (VHH)
VHH: B1 VHH with Y34L, R100K, Y106W
B34: T017000473 (VHH)
VHH: B1 VHH with A27Y, K30Q, W102Y
B35: T017000418 (VHH)
VHH: B1 VHH with I31L, W102Y
B36: T017000403 (VHH)
VHH: B1 VHH with G26W, A27D, K30Q, Y34L
B37: T017000440 (VHH)
VHH: B1 VHH with G26W, A27D, I31L, R100K
B38: T017000410 (VHH)
VHH: B1 VHH with A27Y, I31L, M98F, Y106W
B39: T017000378 (VHH)
VHH: B1 VHH with G26W, A27D, R100K
B40: T017000397 (VHH)
VHH: B1 VHH with A27S, K30Q, I31L, Y34L
B41: T017000362 (VHH)
VHH: B1 VHH with G26Y, A27D, R100K
B42: T017000423 (VHH)
VHH: B1 VHH with A27S, K30Q, Y34L
B43: T017000432 (VHH)
VHH: B1 VHH with A27S, I31L, R100K
B44: T017000415 (VHH)
VHH: B1 VHH with G26W, A27D, K30Q
B45: T017000515 (VHH)
VHH: B1 VHH with Y34L
B46: T017000361 (VHH)
VHH: B1 VHH with A27S, Y34L
B47: T017000373 (VHH)
VHH: B1 VHH with A27S, I31L, Y34L
B48: T017000377 (VHH)
VHH: B1 VHH with G26W, A27D, W102Y
B49: T017000369 (VHH)
VHH: B1 VHH with A27S, I31L, Y106W
B50: T017000370 (VHH)
VHH: B1 VHH with K30Q
B51: T017000401 (VHH)
VHH: B1 VHH with A27S, Y106W
B52: T017000357 (VHH)
VHH: B1 VHH with A27Y, K30Q, I31L
B53: T017000413 (VHH)
VHH: B1 VHH with G26W, A27D, K30Q, I31L, R100K

Where a chain is given by its changes, count along the chain named.

In this assay the target is T1, Cynomolgus TCR(AEA41865/AEA41866)-zipper protein (cynomolgus monkey).
T1 construct: also called cyTCR-zipper protein; cynoTCR zipper
T1 TCR alpha: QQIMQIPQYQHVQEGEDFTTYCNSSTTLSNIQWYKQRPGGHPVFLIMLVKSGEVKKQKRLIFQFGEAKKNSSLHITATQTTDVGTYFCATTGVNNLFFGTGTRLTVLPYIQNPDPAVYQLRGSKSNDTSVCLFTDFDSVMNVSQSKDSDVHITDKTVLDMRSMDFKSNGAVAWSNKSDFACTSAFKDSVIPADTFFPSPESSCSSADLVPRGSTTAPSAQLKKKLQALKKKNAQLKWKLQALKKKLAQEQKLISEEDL
T1 TCR beta: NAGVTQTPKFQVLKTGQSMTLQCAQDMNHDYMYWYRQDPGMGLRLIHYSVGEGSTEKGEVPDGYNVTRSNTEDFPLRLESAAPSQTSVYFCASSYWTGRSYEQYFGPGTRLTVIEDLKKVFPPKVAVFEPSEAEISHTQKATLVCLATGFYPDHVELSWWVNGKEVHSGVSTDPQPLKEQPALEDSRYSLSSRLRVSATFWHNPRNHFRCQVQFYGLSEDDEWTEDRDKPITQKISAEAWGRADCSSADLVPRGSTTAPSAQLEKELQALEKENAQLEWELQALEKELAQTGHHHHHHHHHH
Description: SPR ProteOn off-rate screen.
Description: Unique ISVD clones, i.e. clones with a unique sequence, were subsequently selected and screened to determine their off-rate. To this purpose, the ISVD containing periplasmic extracts were screened on huTCR-zipper and cyTCR-zipper protein by SPR on a ProteOn XPR36 instrument. The zipper proteins were immobilized on a GLC sensor chip (between 4300 and 5100RU) via amine coupling chemistry, using EDC/sulfo-NHS for activation of the carboxyl groups on the chip surface (running buffer: HBS-EP+, pH7.4). Periplasmic extracts were injected at 1/10 dilution for 2 min (at a flow rate of 45 μL/min) and dissociation was followed for 900 s. A pulse of 100 s of 3 M MgCl2 at 45 μL/min was used for regeneration. […] Processed sensorgrams were fitted with the Langmuir model (1:1 interaction) using ProteOn Manager 3.1.0 (Version 3.1.0.6) software.
For the molecule B1, the koff was determined as 0.000875 s⁻¹. In turn, B2 had a koff of 0.000612 s⁻¹. Turning to B3, the koff came to 0.00106 s⁻¹. On to B4, for which the koff is 0.0026 s⁻¹. For the molecule B5, the dissociation rate constant (koff) was found to be 0.00289 s⁻¹. Regarding B6, the koff turned out to be 0.00143 s⁻¹. Against the preceding molecule, the koff is about 2-fold lower.

As for B7, the koff was found to be 0.00216 s⁻¹. Against the preceding molecule, the koff is about 1.5-fold higher. In the case of B8 it was 0.0011 s⁻¹; in that of B9, 0.00122 s⁻¹; in that of B10, 0.00206 s⁻¹. In the case of B11 it was 0.0011 s⁻¹; in that of B12, 0.00153 s⁻¹; in that of B13, 0.00263 s⁻¹.

The molecule B14 returned a koff of 0.00156 s⁻¹. In turn, B15 showed a koff of 0.000209 s⁻¹. The molecule B16 displayed a koff of 0.00243 s⁻¹. As for B17, the koff amounted to 0.00206 s⁻¹. For B18 the value was 0.000401 s⁻¹. In the case of B19 it was 0.00129 s⁻¹.

Take B20: the koff turned out to be 0.000523 s⁻¹. For B21 the value was 0.000152 s⁻¹. B22 registered a koff of 0.000714 s⁻¹. This koff is about 4.7-fold higher than that of the molecule before.

On to B23, for which the koff turned out to be 0.00383 s⁻¹. B24: the koff came to 0.00161 s⁻¹. For B25 the value was 0.00223 s⁻¹.

With B26, the koff came out at 0.00089 s⁻¹. In the case of B27 it was 0.00138 s⁻¹; in that of B28, 0.00201 s⁻¹. For B29 the value was 0.00146 s⁻¹; for B30, 0.00127 s⁻¹; for B31, 0.0017 s⁻¹. Molecule B32 gave a koff of 0.00145 s⁻¹. In the case of B33 it was 0.000609 s⁻¹; in that of B34, 0.00238 s⁻¹. For B35 the value was 0.00187 s⁻¹; for B36, 0.00152 s⁻¹; for B37, 0.000346 s⁻¹. On to B38, for which the koff was 0.00159 s⁻¹. In turn, B39 yielded a koff of 0.000249 s⁻¹. For B40 the value was 0.00245 s⁻¹; for B41, 0.000577 s⁻¹; for B42, 0.00184 s⁻¹. Regarding B43, the koff worked out at 0.000142 s⁻¹. This koff is about 13-fold lower than that of the molecule before.

B44 had an off-rate constant (koff) of 0.000918 s⁻¹. Consider B45, for which the koff was 0.00126 s⁻¹. In the case of B46 it was 0.000982 s⁻¹.

B47 gave a koff of 0.000913 s⁻¹. As to B48, the koff was found to be 0.00214 s⁻¹. For B49 the value was 0.00155 s⁻¹; for B50, 0.00215 s⁻¹; for B51, 0.00183 s⁻¹. For the molecule B52, the dissociation rate constant (koff) was 0.00251 s⁻¹. For B53 the value was 0.000238 s⁻¹.

The record behind these values is US20240092919A1 (Ablynx, published 2024).
